In series [1] the test system is VchCAST RNA-guided transposition machinery (E. coli BL21(DE3) host, lacZ target). Kind of series: relative integration efficiency (T-LR orientation) vs wild-type transposon end (log2 (normalized fold change)); transposon end mutated: right end (5 bp flank + 75 bp right end); higher = more efficient transposition. The gist of the method:
(§1)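 Barcode abundances in input plasmids and in genomic integration junctions were obtained by PCR amplification and Illumina sequencing. These came from E. coli BL21(DE3) co-transformed with a T7-driven effector plasmid and a pUC57 donor carrying 1549 left-end or 1849 right-end transposon variants, then plated with 0.1 mM IPTG at 37°C for 18 h. Relative integration efficiency is the output/input fold change, normalised to reference barcodes and log-transformed.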

Series [2] has the same test system. Kind of series: relative integration efficiency (T-RL orientation) vs wild-type transposon end (log2 (normalized fold change)); transposon end mutated: right end (5 bp flank + 75 bp right end); higher = more efficient transposition. A digest of the protocol: as §1

32 sequences from the supplement of paper PMC10201428 can be followed below.

± gives the standard deviation of the averaged measurements.

Regarding “ACATTTGTTGATACAACCATAAGTTGATATTTTCAACCATAAAGTGATATTTATCACACCCATAAATTGATATTGCCTCTGATCATAGTCAGACCAACATTGCTACGACCCGTATTCGCACCGACAC”, the “relative integration efficiency (log2)” value is -0.507 ± 0.46 in series [1] and -0.032 ± 0.064 in series [2].
The corresponding values for “ACATTTGTTGATACAACCATAAGTTGATATTTTCAACCATAAAGTGATATTTATCAGTGGGTATTTAACTATAACGCTCTGATCATAGTCAGACCAACATTGCTACGACCCGTATTCGCACCGACAC” are 2.69 ± 0.17 and -0.687 ± 0.11.
The corresponding values for “ACATTTGTTGATACAACCATAAGTTGATATTTTCAACCATAAGTTGATATTTTTCACAACCATAAAATGATAATTACTCTGATCATAGTCAGACCAACATTGCTACGACCCGTATTCGCACCGACAC” are -0.0651 ± 0.34 and 0.228 ± 0.008.
With “ACATTTGTTGATACAACCATAAGTTGATATTTTCAACCATAAGTTGATATTTTTCACAACCATAAAGTGATATTTACTCTGATCATAGTCAGACCAACATTGCTACGACCCGTATTCGCACCGACAC”, the “relative integration efficiency (log2)” value in series [1] was -0.145 ± 0.024; in series [2], 0.196 ± 0.011.
The corresponding values for “ACATTTGTTGATACAACCATAAGTTGATATTTTCAACCATAAGTTGATATTTTTCACAACCATAAGTTGATATTTTCTCTGATCATAGTCAGACCAACATTGCTACGACCCGTATTCGCACCGACAC” are -0.207 ± 0.25 and 0.214 ± 0.079.
As to “ACATTTGTTGATACAACCATAAGTTGATATTTTCAACCATAAGTTGATATTTTTCACAACCATATATTGATATCTCCTCTGATCATAGTCAGACCAACATTGCTACGACCCGTATTCGCACCGACAC”, the results for the “relative integration efficiency (log2)” value in series [1] and in series [2] were -0.115 ± 0.22 and -0.102 ± 0.021, respectively.
“ACATTTGTTGATACAACCATAAGTTGATATTTTCAACCATAAGTTGATATTTTTCACACCCATAAATTGATAATTACTCTGATCATAGTCAGACCAACATTGCTACGACCCGTATTCGCACCGACAC”: the entries for the “relative integration efficiency (log2)” value in series [1] and in series [2] were -0.132 ± 0.17 and 0.0466 ± 0.027, respectively.
With “ACATTTGTTGATACAACCATAAGTTGATATTTTCAACCATAAGTTGATATTTTTCACACCCATAAATTGATATTGCCTCTGATCATAGTCAGACCAACATTGCTACGACCCGTATTCGCACCGACAC”, the “relative integration efficiency (log2)” value was found to be 0.248 ± 0.18 in series [1] and 0.348 ± 0.062 in series [2].
In the same order, the values of “ACATTTGTTGATACAACCATAAGTTGATATTTTCAACCATAAGTTGATATTTTTCAGTGGGTATTTAACTATAACGCTCTGATCATAGTCAGACCAACATTGCTACGACCCGTATTCGCACCGACAC” are 2.85 ± 0.1 and -0.302 ± 0.092.
In the same order, the values of “ACATTTGTTGATACAACCATAAGTTGATATTTTCAACCATATATTGATATCTCTCACAACCATAAAATGATAATTACTCTGATCATAGTCAGACCAACATTGCTACGACCCGTATTCGCACCGACAC” are -0.461 ± 0.17 and -0.54 ± 0.12.
In the same order, the values of “ACATTTGTTGATACAACCATAAGTTGATATTTTCAACCATATATTGATATCTCTCACAACCATAAAGTGATATTTACTCTGATCATAGTCAGACCAACATTGCTACGACCCGTATTCGCACCGACAC” are -0.077 ± 0.032 and -0.324 ± 0.14.
Regarding “ACATTTGTTGATACAACCATAAGTTGATATTTTCAACCATATATTGATATCTCTCACAACCATAAGTTGATATTTTCTCTGATCATAGTCAGACCAACATTGCTACGACCCGTATTCGCACCGACAC”, the “relative integration efficiency (log2)” value is -0.0553 ± 0.32 in series [1] and -0.118 ± 0.16 in series [2].
The corresponding values for “ACATTTGTTGATACAACCATAAGTTGATATTTTCAACCATATATTGATATCTCTCACAACCATATATTGATATCTCCTCTGATCATAGTCAGACCAACATTGCTACGACCCGTATTCGCACCGACAC” are 0.206 ± 0.098 and -0.28 ± 0.11.
Turning to “ACATTTGTTGATACAACCATAAGTTGATATTTTCAACCATATATTGATATCTCTCACACCCATAAATTGATAATTACTCTGATCATAGTCAGACCAACATTGCTACGACCCGTATTCGCACCGACAC”, the “relative integration efficiency (log2)” value was 0.134 ± 0.11 in series [1] and -0.464 ± 0.15 in series [2].
Regarding “ACATTTGTTGATACAACCATAAGTTGATATTTTCAACCATATATTGATATCTCTCACACCCATAAATTGATATTGCCTCTGATCATAGTCAGACCAACATTGCTACGACCCGTATTCGCACCGACAC”, the “relative integration efficiency (log2)” value was -0.117 ± 0.12 in series [1] and -0.363 ± 0.0055 in series [2].
The corresponding values for “ACATTTGTTGATACAACCATAAGTTGATATTTTCAACCATATATTGATATCTCTCAGTGGGTATTTAACTATAACGCTCTGATCATAGTCAGACCAACATTGCTACGACCCGTATTCGCACCGACAC” are 2.4 ± 0.039 and -1.15 ± 0.24.
The corresponding values for “ACATTTGTTGATACAACCATAAGTTGATATTTTCACCCATAAATTGATAATTATCACAACCATAAAATGATAATTACTCTGATCATAGTCAGACCAACATTGCTACGACCCGTATTCGCACCGACAC” are -0.584 ± 0.047 and -0.0424 ± 0.077.
The corresponding values for “ACATTTGTTGATACAACCATAAGTTGATATTTTCACCCATAAATTGATAATTATCACAACCATAAAGTGATATTTACTCTGATCATAGTCAGACCAACATTGCTACGACCCGTATTCGCACCGACAC” are -0.211 ± 0.3 and -0.345 ± 0.068.
As for “ACATTTGTTGATACAACCATAAGTTGATATTTTCACCCATAAATTGATAATTATCACAACCATAAGTTGATATTTTCTCTGATCATAGTCAGACCAACATTGCTACGACCCGTATTCGCACCGACAC”, the “relative integration efficiency (log2)” value in series [1] was -0.0829 ± 0.01; in series [2], -0.215 ± 0.056.
The corresponding values for “ACATTTGTTGATACAACCATAAGTTGATATTTTCACCCATAAATTGATAATTATCACAACCATATATTGATATCTCCTCTGATCATAGTCAGACCAACATTGCTACGACCCGTATTCGCACCGACAC” are -0.455 ± 0.14 and -0.64 ± 0.15.
In the case of “ACATTTGTTGATACAACCATAAGTTGATATTTTCACCCATAAATTGATAATTATCACACCCATAAATTGATAATTACTCTGATCATAGTCAGACCAACATTGCTACGACCCGTATTCGCACCGACAC”, the “relative integration efficiency (log2)” value in series [1] is 2.73 ± 0.044; in series [2], 2.44 ± 0.29.
In the same order, the values of “ACATTTGTTGATACAACCATAAGTTGATATTTTCACCCATAAATTGATAATTATCACACCCATAAATTGATATTGCCTCTGATCATAGTCAGACCAACATTGCTACGACCCGTATTCGCACCGACAC” are -0.177 ± 0.84 and 0.0993 ± 0.059.
In the same order, the values of “ACATTTGTTGATACAACCATAAGTTGATATTTTCACCCATAAATTGATAATTATCAGTGGGTATTTAACTATAACGCTCTGATCATAGTCAGACCAACATTGCTACGACCCGTATTCGCACCGACAC” are 2.55 ± 0.051 and -1 ± 0.34.
The corresponding values for “ACATTTGTTGATACAACCATAAGTTGATATTTTCACCCATAAATTGATATTGCTCACAACCATAAAATGATAATTACTCTGATCATAGTCAGACCAACATTGCTACGACCCGTATTCGCACCGACAC” are -0.0881 ± 0.35 and -0.631 ± 0.13.
In the case of “ACATTTGTTGATACAACCATAAGTTGATATTTTCACCCATAAATTGATATTGCTCACAACCATAAAGTGATATTTACTCTGATCATAGTCAGACCAACATTGCTACGACCCGTATTCGCACCGACAC”, the “relative integration efficiency (log2)” value was -0.333 ± 0.49 in series [1] and -0.377 ± 0.053 in series [2].
In the same order, the values of “ACATTTGTTGATACAACCATAAGTTGATATTTTCACCCATAAATTGATATTGCTCACAACCATAAGTTGATATTTTCTCTGATCATAGTCAGACCAACATTGCTACGACCCGTATTCGCACCGACAC” are -0.109 ± 0.43 and -0.281 ± 0.16.
In the same order, the values of “ACATTTGTTGATACAACCATAAGTTGATATTTTCACCCATAAATTGATATTGCTCACAACCATATATTGATATCTCCTCTGATCATAGTCAGACCAACATTGCTACGACCCGTATTCGCACCGACAC” are 0.0122 ± 0.21 and -0.904 ± 0.14.
“ACATTTGTTGATACAACCATAAGTTGATATTTTCACCCATAAATTGATATTGCTCACACCCATAAATTGATAATTACTCTGATCATAGTCAGACCAACATTGCTACGACCCGTATTCGCACCGACAC”: the results for the “relative integration efficiency (log2)” value in series [1] and in series [2] were 0.36 ± 0.054 and -0.658 ± 0.16, respectively.
The corresponding values for “ACATTTGTTGATACAACCATAAGTTGATATTTTCACCCATAAATTGATATTGCTCACACCCATAAATTGATATTGCCTCTGATCATAGTCAGACCAACATTGCTACGACCCGTATTCGCACCGACAC” are 0.258 ± 0.12 and -0.468 ± 0.17.
The corresponding values for “ACATTTGTTGATACAACCATAAGTTGATATTTTCACCCATAAATTGATATTGCTCAGTGGGTATTTAACTATAACGCTCTGATCATAGTCAGACCAACATTGCTACGACCCGTATTCGCACCGACAC” are 2.31 ± 0.065 and -1.19 ± 0.12.
The corresponding values for “ACATTTGTTGATACAACCATAATATGATAATTACACCCATAATTTGATAATTATCACACCCATAATTTGATATTGCCTCTGATCATAGTCAGACCAACATTGCTACGACCCGTATTCGCACCGACAC” are -0.428 ± 0.015 and -0.262 ± 0.035.
On to “ACATTTGTTGATACAACCATAATTACATAATTACACCCATAAATTGATAATTATCACACCCATAAATTGATATTGCCTCTGATCATAGTCAGACCAACATTGCTACGACCCGTATTCGCACCGACAC”, for which the entries for the “relative integration efficiency (log2)” value in series [1] and in series [2] were -2.85 ± 0.16 and -2.32 ± 0.15, respectively.
